Reference: PMC5207764

Target: Vibrio cholerae major pilin TcpA with a His181Ala substitution, assembled in purified TCP^H181A pili (V. cholerae)

B1: Vibrio cholerae minor pilin TcpB (natural protein)
chain: MRKYQQGVGLLEAILASAVLGMALVAAGSYYKREAELMIKSSNAFDVIELSSQIQRYASLSKINNRTNPILKDNKAKEFKDADLKWLKLENCLTAGDVPTTGNNNDLQDQFIACDADYRKGDLSYFGSQFEFSTYVHPSNPEIQRQIKQVVSYFQYRGMERAFIGDAAGYVISEAKKKGFSAQDYRIVLIEPDRVGYFESNVISYEEFIENPSARENFLLKATKDRTLALAVSLAQTGEIAMQRDGSVAFLEDTELCWDTAAGSAKSCLSVRYDTVGNKTELDLKQIDVVSAKGLSFESDGKTKTPVVSTYETFQDGGRAKTINAIECPTGLNNRFAAVVSSFSTAGQNANFSSESAKDSQGTTQKDGSKGPHALLSGISLNWTLTNKVWDVTASIGIESGILPTSGIDSGSLLRNPKSLSFIAFQWCEN
Question: With B1 as the binder, how does the molar ratio TcpA:TcpB in purified pili (TcpA per TcpB) read?
Answer: 7000
